Test results published in patent publication US9969998B2, “Compositions of adenosine deaminase-2 (ADA2), variants thereof and methods of using same” (Halozyme, Inc., priority 2014, dated 2018).
Substitutions are numbered along the chain they refer to. In names and notes the source's numbering stands. Several values for one entry are separate records, joined by “and”; a condition that tells them apart may be missing. Equal entries are not always repeated.

Legend:
[1] = tested on: NK/T cells; experiment: Adenosine-mediated inhibition of NK/T cell proliferation (Cell Titer Glow); format: cell-based, human; conditions: 5 days
Procedure: A mixture of NK and T cells (NK/T) were prepared from healthy donor's peripheral blood mononuclear cells (PBMC). Briefly, 10×10^7 HumanPBMCs were cultured for 6-7 days in Stem cell growth medium (SCGM; Order No. 20802-0500, CellGenix, Freiburg, Germany) with 5% human serum from donors with blood type AB (human AB serum; Cat. No. 35-060-C1, Mediatech, Mannassas, Va.) in the presence of 20 ng/mL anti-CD3 eBioscience, San Diego, Calif.; Cat. No. 16-0039) and 500 IU/mL recombinant human interleukin 2 (rhIL-2; Cat. No. 200-02, PeproTech, Rocky Hill, N.J.). The cells were then cultured for an additional 2-3 weeks in SCGM in the presence of 500 IU/mL rhIL-2. NK/T cells cultured for 2-4 weeks were used in experiments.
To test the adenosine-mediated inhibition of NK/T cells proliferation, NK/T cells (10,000 cells/well) were plated in a 96 well white plate with clear bottoms in 200 μL volume. The cells were treated with 20 μL adenosine (SKU No. A925, Sigma Aldrich) at concentrations resulting from a 3-fold dilution series starting at 1 mM, i.e. 1 mM, 300 μM, 100 μM, 30 μM, 10 μM, 3 μM, 1 μM, 0.3 μM and 0.1 μM. The NK/T cells were allowed to grow for 5 days in a humidified tissue culture incubator at 37° C. with 5% CO2. After 5 days of treatment, the cells were centrifuged in a 96 well plate at […] for 5 min. 100 μL of medium was removed from each well of cells, followed by addition of 100 μL of Cell Titer Glow (CTG) reagent (Cat. No. G7570, Promega, Madison, Wis.) and incubated at room temperature for 15 min before measuring luminescence on the SpectraMax M3 plate reader according to the manufacturer's instructions. The mean cell survival (%) was determined by comparison of the measured luminescence to control cells not treated with adenosine

[2] = Adenosine deaminase (ADA) enzymatic activity assay kit; format: biochemical
[3] = Heparin binding capture ELISA (biotin-heparin on streptavidin plate); conditions: PEGylated and non-PEGylated forms (Table 22)
Procedure: Heparin binding of PEGylated rHuADA2 or variants was assessed by capture ELISA. Binding of rHuADA1 was assessed as a negative control. 100 μL of 0.2 mg/mL biotin-heparin (Sigma-Aldrich, St. Louis, Mo.; Cat No. B9806-10MG) was added to a streptavidin coated 96-well plate (Thermo Fisher Scientific, Rockford, Ill.; Cat. No. 15520), and incubated at room temperature for 1 hour. The plate was washed 6 times with PBS. Then, 150 μL of […] rHuADA2 was added to the heparin coated plate, titrated in 3× serial dilutions, and incubated at room temperature for 2 hours. The plate was then washed 6 times with PBS. A 1000× dilution of goat HRP-anti-FLAG pAb (Abcam, Cambridge, UK; Cat. No. Ab1238) was added to the ELISA plate and incubated at room temperature for 1 hour. The ELISA plate was then washed 6 times with phosphate buffered saline with Tween (PBST) and developed with the 3,3′,5,5′-Tetramethylbenzidine (TMB) substrate solution (Pierce, Thermo Fisher Scientific, Rockford, Ill.) according the manufacturer's instructions and reading the optical density at 450 nm (OD450) on a plate reader.

[4] = Thermal stability by differential scanning fluorimetry (DSF); format: physicochemical; conditions: 0.1-1 mg/mL protein
Procedure: The stability of the rHuADA2 WT and variants was measured by differential scanning fluorimetry (DSF) at increasing temperatures. DSF measures conformational stability, which correlates with thermal stability. The melting temperature (Tm) in DSF is defined as the midpoint of the protein unfolding transition.
Non-PEGylated WT rHuADA2, non-PEGylated rHuADA2 variants, and PEGylated forms of WT rHuADA2 and rHuADA2 variants were prepared at concentrations of 0.1-1 mg/mL and mixed with the ROX™ protein thermal shift dye (Applied Biosystems, Carlsbad, Calif.; Cat. No. 4461146) to a final dye concentration that corresponds to a 125-fold dilution of the stock ROX™ solution. Protein samples were then loaded into 96-well plate at a volume of 20 μL/well in triplicate. A ViiA7 RT-PCR System (Applied Biosystems, Carlsbad, Calif.) was used to measure the shift in fluorescence as the temperature of the samples were increased. The reactions were subjected to the following steps: incubation at 25° C. for 2 min; ramping of temperature from 25 to 99° C. at a rate of 0.05° C. per second; followed by a 99° C. incubation for 2 min. The wavelengths used for emission and excitation were 623 nanometers (nm) and 580 nm, respectively.

[5] = mouse, in vivo, iv, 7.5 mg/kg
Description: Fifty four (54) male BALB/c mice were divided into six (6) dosing groups, and were further divided into three (3) groups each for sampling of blood at different time points. Thus, the mice were randomized into eighteen (18) groups total. Mice were weighed prior to the start of the study, and randomized into the 18 groups based upon their body weights. In each sampling group, three groups of (3) mice were used for dosing each test article to prevent oversampling of the blood from the animals. For measurement of baseline ADA2 levels, a blood sample was obtained from 12 randomly chosen mice and plasma was prepared using the anti-coagulant potassium (K3) ethylene diamine tetraacetic acid (K3-EDTA). All blood was collected by submandibular venipuncture.
Each mouse was injected by intravenous tail-vein injection with a 7.5 mg/kg dose of one of six ADA2 test article as set forth in Table 24, i.e. rHuADA2-K374D (K371D by mature numbering), PEG-rHuADA2-K374D (PEG-K371D by mature numbering), rHuADA2-R23E (R20E by mature numbering), PEG-rHuADA2-R23E (PEG-R20E by mature numbering), or WT ADA2 and PEG-WT ADA2.
Blood was collected at designated sampling time points from appropriate groups of mice as indicated below in Table 24 and kept on ice until plasma preparation. Plasma was prepared by centrifuging the blood (500×g for 5 min at 4° C.), transferring the plasma to a fresh tube and immediately freezing at −80° C. until the adenosine deaminase activity assay. Adenosine deaminase activity was determined as described in Example 4. The half-life, or time taken for the activity of ADA2 proteins to be reduced by half, was calculated. Also, total exposure was measured by calculating the Area Under the Concentration-time Curve (AUC).

[6] = Kinetic assessment of adenosine deaminase activity (ammonia assay, Michaelis-Menten); format: biochemical; conditions: for Km / Vmax / kcat: [E] = 8.5 nM; for kcat: kcat=Vmax/0.0085/60
Summary of the method: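 Coupled ammonia assay: rHuADA2 WT or variants (1 μg/mL, 17 nM in 2× mix) with adenosine 20 μM–20 mM, α-ketoglutarate, NADPH and GDH, at pH 7.6 or pH 6.5 (PIPES), room temperature. Michaelis-Menten fit gave Km, Vmax, kcat, kcat/Km.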

[7] = tested on: adenosine in tumor extracellular matrix; experiment: Adenosine in MH194+PSC4 tumor extracellular matrix (microdialysis, LC/MS); format: in vivo, mice; conditions: for Adenosine concentration in ECM, Mean: n = 8; for Adenosine concentration in ECM, individual tumors: single animal values; for adenosine concentration in tumor ECM: 0.03 mg/kg
Procedure: To assess the effects of PEGADA2 on adenosine in tumor extracellular matrix, mice bearing peritibial MH194+PSC4 tumors received vehicle, the polypeptide whose sequence is set forth in SEQ ID NO:20, which contains the amino acid replacement K374D (Zavialov numbering; K371D mature numbering), at 0.03 mg/kg, or the polypeptide whose sequence is set forth in SEQ ID NO: 273, which contains the amino acid replacements R222Q/S265N (Zavialov numbering; R219Q/S262 mature numbering), at 0.03 mg/kg, 24 or 48 hours prior to microdialysis. Each of the polypeptides were PEGylated as described above in Examples 8 and 22). The mice were anesthetized using isofluorane, and a heating pad was used to maintain body temperature. A small incision was made on the tumor. A microdialysis probe with 55,000 Da molecular weight cut-off (CMA, Stockholm, Sweden) was inserted into the tumor, via a guided cannula. The length of the microdialysis probe used in this study was 10 mm. Once the probe was in position, the cannula was withdrawn leaving the probe completely embedded in the tumor tissue. Dulbecco's phosphate buffered saline (DPBS; Thermo Fisher Scientific) with ADA inhibitors (Pentostatin and 5-iodotubercindin) was perfused through the probe at a flow rate of 1 μl/min for 30 minutes. Then the samples were collected at a flow rate of 0.5 μl/min for 60 minutes. Microdialysis perfusates were analyzed by Liquid chromatography-mass spectrometry (LC/MS) at MicroConstants (9050 Camino Santa Fe, San Diego, Calif. 92121).

## Nc1ncnc2c1ncn2[C@@H]1O[C@H](CO)[C@@H](O)[C@H]1O [Adenosine, adenosine]
[1]; Homo sapiens, NKT, 120 h
  IC50: 16.2 µM
[1]; adenosine 0.1 μM
  Mean Cell survival (%): 106.67%
[1]; adenosine 0.3 μM
  Mean Cell survival (%): 101.19%
[1]; adenosine 1 μM
  Mean Cell survival (%): 121.11%
[1]; adenosine 3 μM
  Mean Cell survival (%): 110.07%
[1]; adenosine 10 μM
  Mean Cell survival (%): 70.33%
[1]; adenosine 30 μM
  Mean Cell survival (%): 36.84%
[1]; adenosine 100 μM
  Mean Cell survival (%): 26.01%
[1]; adenosine 300 μM
  Mean Cell survival (%): 13.65%
[1]; adenosine 1000 μM
  Mean Cell survival (%): 15.82%

B1: PEG-WT ADA2: WT rHuADA2 PEGylated with linear PEG-20K (conjugate, UniProt Q9NZK5 30-511, looked up)
Adenosine deaminase 2: IDETRAHLLLKEKMMRLGGRLVLNTKEELANERLMTLKIAEMKEAMRTLIFPPSMHFFQAKHLIERSQVFNILRMMPKGAALHLHDIGIVTMDWLVRNVTYRPHCHICFTPRGIMQFRFAHPTPRPSEKCSKWILLEDYRKRVQNVTEFDDSLLRNFTLVTQHPEVIYTNQNVVWSKFETIFFTISGLIHYAPVFRDYVFRSMQEFYEDNVLYMEIRARLLPVYELSGEHHDEEWSVKTYQEVAQKFVETHPEFIGIKIIYSDHRSKDVAVIAESIRMAMGLRIKFPTVVAGFDLVGHEDTGHSLHDYKEALMIPAKDGVKLPYFFHAGETDWQGTSIDRNILDALMLNTTRIGHGFALSKHPAVRTYSWKKDIPIEVCPISNQVLKLVSDLRNHPVATLMATGHPMVISSDDPAMFGAKGLSYDFYEVFMGIGGMKADLRTLKQLAMNSIKYSTLLESEKNTFMEIWKKRWDKFIADVATK
modifications: linear PEG-20K
notes: WT rHuADA2 PEGylated with linear PEG-20K
[2]; PEGylated and non-PEGylated forms (Table 23)
  adenosine deaminase activity mU/mL: 124.2 mU/mL
[2]; Table 23
  % of WT adenosine deaminase activity: 102.2%
[3]
  Average OD450, heparin binding capture ELISA: 0.75
[4]
  Tm, melting temperature by DSF: 68.81 °C
[5]
  AUC (mU * h)/mL: 1,444,000 (mU * h)/mL
  Half life slow (t1/2): 13.6 h
  Percent increase in AUC compared to WT ADA2: 4291%
  Percent increase in t1/2 compared to WT ADA2: 1078%

B2: R222Q/S265N: ADA2 combination variant SEQ ID NO:273 (protein)
chain: B1 Adenosine deaminase 2 with R219Q, S262N
modifications: human ADA2 R219Q/S262N, mature numbering
[6]; pH 6.5
  fold higher catalytic efficiency (kcat/Km) compared to the WT ADA2: 8.2 fold
  fold lower Km compared to the WT ADA2: 5.0 fold
  Km: 800 µM
  Vmax: 56.75 µM/min
  kcat: 111.27 s⁻¹
[6]; pH 7.6
  fold higher catalytic efficiency (kcat/Km) compared to the WT ADA2: 15 fold
  fold lower Km compared to the WT ADA2: 4.7 fold
  Km: 1100 µM
  Vmax: 87.79 µM/min
  kcat: 172.14 s⁻¹
[7]; 24 hours after 0.03 mg/kg
  Adenosine concentration in ECM, Mean: 6.88 µM
  Adenosine concentration in ECM, individual tumors: 0.08 µM and 20.54 µM and 1.08 µM and 0.62 µM and 4.94 µM and 21.48 µM and 0.48 µM and 5.80 µM
[7]; 24 hours post treatment
  adenosine concentration in tumor ECM: 6.9 µM
[7]; 48 hours after 0.03 mg/kg
  Adenosine concentration in ECM, Mean: 9.77 µM
  Adenosine concentration in ECM, individual tumors: 13.06 µM and 1.96 µM and 20.36 µM and 20.62 µM and 0.35 µM and 4.15 µM and 14.26 µM and 3.43 µM
[7]; 48 hours post treatment
  adenosine concentration in tumor ECM: 9.8 µM
